B1: ADI-15651 (antibody, V domains shown)
VH: EVQLVESGPALVKPTQTLTLTCTVSGGVERMSVSWVRQPPGKALEWLARIDWDDDKYYNTFLKTRLTISKGTSKNEVVLTMTNMDPEDTAIYYCARTNRYDKSGYYLYYLDYWGQGTLVTVSS
VL: DIQMTQSPSSLSASVGDKVTITCRASQTIASYVNWYQQHPGKAPKLLIYLASRLQSGAPSRFSGSGSGTDFTLTILNLQPEDFATYYCQQSYSSFFTFGPGTKVEIK
notes: IgG
B2: ADI-15646 (antibody, V domains shown)
VH: EVQLLESGGGLIQPGGSLRLSCGASGFTVTGNYMHWVRQAPGKGLEWVSVIYAGSSTYYADSVRGRFTISRDKARNTLFLQMNRLRAEDTAVYYCARAGVVGEDRSGWYGPDYFHGLDVWGQGTTVTVSS
VL: ETTLTQSPGTLSLSPGERATLSCRASQSIRNNYLAWYQQKPGQPPRLLIYGESRRATGIPGRFSGSGSGTDFTLTISSLEPEDFAVYYCQQYGGSPYTFGQGTKVDIK
notes: IgG; also called Antibody Number 210
B3: ADI-15577 (antibody, V domains shown)
VH: QVQLVQSGAEVKKPGSSVKVSCKASGGTFGSYAISWVRQAPGQGLEWMGGTIPIFGTADHAQKFQGRVTITADKSTSTAYMELSSLRSEDTAVYYCARGVFRVGCSDTSCLKNYYGTDVWGQGTTVTVSS
VL: QSVLIQPASVSGSPGQSITVSCTGSSGDVGAYKYVSWYQQHPGRGPKLIIYDVSARPSGISDRFSGSKSGNTASLTISGLQAEDEADYYCSSYSSSSTLVVFGGGTKVTVL
notes: IgG
B4: ADI-15556 (antibody, V domains shown)
VH: QVQLVQSGAEVKKPGSSVKVSCKASGGNVNIYGISWVRQAPGQGLEWMGGIIPIYDTTKYAQKFQDRVTITADKSTSTAYMELSSLRSEDTAVYFCARDLDYDILTGYSVNYYYYGMDVWGQGTTVTVSS
VL: QSVLTQPPSVSGAPGQRVTISCTGSSSNIGAGYDVHWYQQLPGTAPKLLIYGNINRPSGVPDRFSGSKSGTSASLAITGLQAEDEADYYCQSCDSSLSGWVFGGGTKLTIL
notes: IgG
B5: ADI-15588 (antibody, V domains shown)
VH: EVQLVESGPGLVKPSETLSLICRVFGGSVRRGDYNWNWIRQPPGKGLEWIGYIDYSGTTKYNPSLKSRVTISEDTSRNQFSLELRSVTAADTAMYYCARDVGSTPYNYYGMDVWGQGTTVTVSS
VL: EIVLTQSPGTLSLSPGERATLSCRASQTIKNNYLAWYQQKPGQAPRLLMYGVSSRPTGIPDRFSGSGSGTDFSLTIDRLEPEDFAVYYCQQFGRSPELTFGGGTKVEIK
notes: IgG; also called Antibody Number 155
B6: ADI-15641 (antibody, V domains shown)
VH: QVQLVESGGGVVQPGRSLRVSCAASGFDFSNYAMHWVRQAPGKGLEWVALISYDGNNKVYADSVKGRFTVSRDNSKNTLYLQMNSLRPEDTAVIYCAKDGYLAPDFWGQGTLVTVSS
VL: QSVLTQPASVSGSPGQSIIISCTGTSSDVGEYDYVSWYQHHPHKAPKLIIYEVSNRPSGVSNRFSGSKSGNTASLTISGLQAEDEADYYCSSYTSSSGQAFGTGTKVTVL
notes: IgG; also called Antibody Number 205
B7: ADI-15599 (antibody, V domains shown)
VH: EVQLLESGGGLVQPGRSLRLSCSGSGFTFGDYALSWVRQAPGKGLEWVGFIRSKAYGGTTEYAASVKGRFTISRDDSKSIAYLQMNSLKTEDTAVYYCTMAVVVPGATDAFDIWGQGTMVTVSS
VL: NFMLTQPHSVSESPGKTVTISCTRSSGSIASDYVQWFQQRPGSSPATVIYQDNQRPSGVPDRFSGSIDTSSNSASLTISGLKTEDEADYYCHSYDSSNPWVFGGGTKLTVL
notes: IgG; also called Antibody Number 165
B8: ADI-15582 (antibody, V domains shown)
VH: QVQLVQSGGEVKKPGASVKVSCKASGYTFISYGITWVRQAPGQGPEWMGWISPYNGDTNYAQKLQGRVTMTTDTSTTTAYMELRSLRSDDTAIYYCARRYDILTGGGWFDSWGQGTLVTVSS
VL: DIVMTQSPSSLSASVGDRVTINCRASQSIISYLNWYQQKPGKAPELLIYAASSLQSGVPSRFSGSGSGTEFTLTISSLQPEDFATYYCQQSYSTPLSFGPGTKVEIK
notes: IgG
B9: ADI-15667 (antibody, V domains shown)
VH: EVQLVESGGGLVQPGGSLRLSCAASGFTFSDFSMSWVRQAPGKGLEWVSLIKSSGYAYYADSVRGRFTISRDNSKNTLYLQMNSLRAEDTAIYYCAKDADFWSGAAYNGGYNFDSWGQGTLVTVSS
VL: DIQMTQSPATLSVFPGDRATLSCRASQSVGSNLAWYQQKPGQAPRLLIFGASTRATGIPARFSGSGSGTEFTLTISSLQSEDFAVYYCQQYHNWPPLTFGGGTKVDIK
notes: IgG
B10: ADI-15658 (antibody, V domains shown)
VH: EVQLVESGGGLVQPGRSLRLSCVTSGFGFDDYAMHWVRQAPGKGLEWVSGIGWNSGGIGYADSVKGRFSISRDNAKNSLYLQMNSLRPEDTAFYYCVKDGTPIAVAGYFEYWGQGTLVTVSS
VL: SYELTQPPSASGTPGQRVTISCSGGRSNIGNNYVYWYQQLPGTAPKLLIYRHDQRPSGVPDRFSGSKSGTSASLAINGLRSEDEADYFCAVWDDSLSCYVFGAGTKLTVL
notes: IgG
B11: ADI-15659 (antibody, V domains shown)
VH: QVQLVQSGAEVKKPGSSVKVSCKASGGTFSTYGISWVRQAPGQGLEWMGRVIPMFGTATYAQKFQDRVTITADKATSTAYMELNSLRSDDTAVYYCARCPPFEGVRPPWFDPWGQGTLVTVSS
VL: SYELTQPPSVSVAPGRTAKITCGGYNIGNKRVHWYRQRPGQAPVLIVYDNADRPSGIPERFSGSNSGNTATLTISNVAAGDEADYHCQVWETSSDHPVFGGGTKLTVL
notes: IgG; also called Antibody Number 223
B12: ADI-15006 (antibody, V domains shown)
VH: EVQLVESGPGLVKPSGTLSLTCTVSGDSMSDYYWSWIRQSPGRGLEWLGYIYYDGSTNYNPSLKGRGTISIDTSKSQFSLTLSSVKAADTAVYYCARGKYYDRGGYYLFYLDYWGQGILVTVSS
VL: DIRLTQSPSSLSASVGDRVTITCRASQTIASYVNWYQQKPGKAPKLLIYAASSLQDGVPSRFSGSGSGTDFALTISSLQPEDFAIYFCQQSYSTPIFTFGPGTKVEIK
notes: IgG; also called Antibody Number 125
B13: ADI-15660 (antibody, V domains shown)
VH: EVQLVQSGTEVKKPGESLKISCKASGYSSFPNWIGWVRQMPGKGLEYMGSIFPDDSNTRYSPSFRGLVAISADKSLRTAYLQWSSLKASDSAIYYCARGPFPHYFDSWGQGTLVTVSS
VL: NFMLTQPHSVSESPGKTVTISCTRSSGSIARNYVQWYQQRPGSSPTTVIYEDDQRPPGVPDRFSGSIDSSSNSASLTISGLQTEDEADYYCQSYDPTNQNVFGTGTKLTVL
notes: IgG
B14: ADI-15645 (antibody, V domains shown)
VH: EVQLLESGGGLVQPGGSLRLSCAASGFTFSSYAMSWVRQIPGKGLEWVSTINISGGSTYYADSVKGRFTISRDNSRDTVFLQMNGLRAEDTALYYCARGYHIDWFDFWGQGTLVTVSS
VL: DIVLTQTPSSVSASVGDRVTITCRASQDIGSWLAWYQQKPGKAPQFLIYAASQLQSGVPSRFSGSGSGTDFTLTISSLQPEDFATYYCQQAKSLPRTFGGGTKVDIK
notes: IgG
B15: ADI-15593 (antibody, V domains shown)
VH: QVQLVQSGGGLVRPGGSLRLSCAASGFMFSTYSMNWLRTVPGKGLEWVSSISGSSSHIYYADSVKGRFTISRDNTKNSLYLQMNSLRPEDTALYYCARYFGDYSGLGNYYYYGMDVWGQGTTVTVSS
VL: DIVMTQSPVSLPVTPGEPASISCRSSQSLLHSNGNNYLDWYLQRPGQSPQLLIYLGSNRASGVPDRFSGSGSGTDFTLRISRVEAEDVGVYYCMQALQTPRFGGGTKVEIK
notes: IgG; also called Antibody Number 160

What was measured:
[1] = molecular target: RSV F protein of subtype A strain A2, on virus (respiratory syncytial virus subtype A …, UniProt P03420 26-574); assay: cell-based or functional assay
[2] = molecular target: RSV F protein of subtype B strain 18537, on virus (respiratory syncytial virus subtype B …, UniProt P13843 26-574); assay: cell-based or functional assay
[3] = molecular target: T1, prefusion-stabilized RSV F ectodomain (DS-Cav1), subtype B (respiratory syncytial virus subtype B); assay: BLI, IgG on sensor
T1 construct: extracellular domain; also called Prefusion subtype B
Procedure: (§1) IgG binding to DS-Cav1 and FA FP was determined by BLI measurements using a FortéBio Octet HTX instrument (Pall Life Sciences). […] Data was analyzed using the ForteBio Data Analysis Software 7. The data was fit to a 1:1 binding model to calculate an association and dissociation rate, and KD was calculated using the ratio kd/kₐ.

[4] = molecular target: T2, postfusion RSV F ectodomain, subtype B (respiratory syncytial virus subtype B); assay: BLI, IgG on sensor
T2 construct: extracellular domain; also called Postfusion subtype B
Procedure: as §1

[5] = molecular target: T3, postfusion RSV F ectodomain (F ΔFP), subtype A (respiratory syncytial virus subtype A, UniProt P03420 26-109; P03420 147-524); assay: BLI, IgG on sensor
T3 construct: extracellular domain; also called Postfusion subtype A
Procedure: as §1

Binder | Neut IC50 (ug/ml) subtype A [1] | Neut IC50 (ug/ml) subtype B [2] | Kd [3] | Kd [4] | Kd [5]
B1 | 1.6 µg/mL | 3.29 µg/mL | 2080 pM | 453 pM | 230 pM
B2 | 0.846 µg/mL | > 10 µg/mL | 2620 pM | 3180 pM | 318 pM
B3 | > 10 µg/mL | > 10 µg/mL | 4660 pM | 679 pM | 779 pM
B4 | 0.055 µg/mL | 0.081 µg/mL | 2200 pM | 190 pM | 247 pM
B5 | 0.094 µg/mL | 0.234 µg/mL | 427 pM | 953 pM | 353 pM
B6 | 0.184 µg/mL | 0.483 µg/mL | 136 pM | 136 pM | 161 pM
B7 | 0.11 µg/mL | 0.378 µg/mL | 246 pM | 652 pM | 1230 pM
B8 | 2.22 µg/mL | 6.74 µg/mL | 2320 pM | 295 pM | 385 pM
B9 | 0.039 µg/mL | 0.048 µg/mL | 333 pM | 208 pM | 231 pM
B10 | 6.25 µg/mL | > 10 µg/mL | 1810 pM | 169 pM | 180 pM
B11 | > 10 µg/mL | > 10 µg/mL | 11000 pM | 3660 pM | 1130 pM
B12 | 19.1 µg/mL | > 10 µg/mL | 4200 pM | 3610 pM | 243 pM
B13 | 17.3 µg/mL | > 10 µg/mL | 890 pM | 105 pM | 98 pM
B14 | > 10 µg/mL | > 10 µg/mL | 4600 pM | 352 pM | 367 pM
B15 | > 10 µg/mL | > 10 µg/mL | 3950 pM | 761 pM | 507 pM

From patent publication US20220144922A1 (Adimab, published 2022)
